This is an account of results in article PMC8881573, “Inhibition of SRP-dependent protein secretion by the bacterial alarmone (p)ppGpp” (Nature Communications, 2022).

The assay concerns the target ribosomal protein uL29 (B. subtilis (endogenous in the B. …, UniProt P12873 1-66)). The experiment in a line: cryo-EM structure; (Bs)SRP pre-incubated with pppGpp, tenfold molar excess over MifM-stalled RNCs, 10 min at room temperature. The settings on record: both partners purified.

B1: recombinant (Bs)SRP (Ffh and 6S RNA) (natural protein)
chain: MAFEGLADRLQQTISKIRGKGKVSEQDVKEMMREVRLALLEADVNFKVVKDFVKKVSERAVGQDVMKSLTPGQQVIKVVQEELTELMGGEESKIAVAKRPPTVIMMVGLQGAGKTTTSGKLANLLRKKHNRKPMLVAADIYRPAAIKQLETLGKQLDMPVFSLGDQVSPVEIAKQAIEKAKEEHYDYVILDTAGRLHIDHELMDELTNVKEIANPEEIFLVVDSMTGQDAVNVAKSFNEQLGLTGVVLTKLDGDTRGGAALSIRAVTNTPIKFAGLGEKLDALEPFHPERMASRILGMGDVLTLIEKAQASVDEDKAKELEQKMRTMSFTLDDFLEQLGQVRNMGPLDELLQMMPGAGKMKGLKNIQVDEKQLNHVEAIIKSMTVLEKEQPDIINASRRKRIAKGSGTSVQEVNRLLKQFDEMKKMMKQMTNMSKGKKKGFKLPFM
notes: Ffh, B. subtilis, full length; Ribonucleoprotein: the protein stood with the 6S SRP RNA and with pppGpp or GMPPNP; also called full-length (Bs)Ffh; not shown: 6xHis, N-terminal, cleaved
Regarding B1, the binding result is on record as “binds”.
